In paper PMC9045774, “The prominent role of a CDR1 somatic hypermutation for convergent IGHV3-53/3-66 antibodies in binding to SARS-CoV-2” (Emerging Microbes & Infections, 2022):

B1: BD-236, germline format at residue 27 (reverse mutation) (antibody, V domains shown)
VH: EVQLVESGGGLIQPGGSLRLSCAASGFTVSSNYMSWVRQAPGKGLEWVSVIYSGGSTDYADSVKGRFTISRDKSKNTLYLQMNSLRAEDTAVYYCARDLGEAGGMDVWGQGTTVTVSS
VL: AIQLTQSPSSLSASVGDRVTITCRASQGISSYLAWYQQKPGKAPKLLIYAASTLQSGVPSRFSGSGSGTDFTLTISSLQPEDFATYYCQQLNSYPPAFGGGTKVEIK
notes: as the heavy chain of m10 (PDB 7CHB) with residue 27 reverted to the germline F; as the light chain of m10
B2: COVOX-222, germline format at residue 27 (reverse mutation) (antibody, V domains shown)
VH: EVQLVESGGGLIQPGGSLRLSCAASGFTVSSNYMSWVRQAPGKGLEWVSVIYSGGSTFYADSVKGRFTISRDNSKNTLYLQMNSLGAEDTAVYYCARGEGSPGNWFDPWGQGTLVTVSS
VL: DVVMTQSPGTLSLSPGERATLSCRASQSVPSSYLAWYQQKPGQAPRLLIYGASTRATGIPDRFSGSGSGTDFTLTISRLEPEDFAVYYCQHYDTSPRFGGGTKVDIK
notes: as the heavy chain of m12 (PDB 7NX6) with residue 27 reverted to the germline F; as the light chain of m12; also called germline format of COVOX-222

Biological target: T1, SARS-CoV-2 receptor-binding domain (RBD) (SARS-CoV-2, ancestral (Wuhan-Hu-1) …, UniProt P0DTC2)
T1 construct: also called SARS-CoV-2 RBD
Experiment: not stated; binding affinities of the residue-27 germline revertants of BD-236, COVOX-222 and CV30 (supplementary Fig. S5); method not named in the sentence (BLI in the experiments around it)

Row | Binder | fold decrease of affinity against BD-236 | fold decrease of affinity against COVOX-222
1 | B1 | 1.37 fold | 
2 | B2 |  | 2.02 fold
